In paper PMC3762913:

Legend:
Settings in all cases: remark: other sources report otherwise
[1] = molecular target: T1, wild type (WT) human peripheral myelin protein 22 (PMP22) (human), Q01453; assay: cross-linking
T1 chain: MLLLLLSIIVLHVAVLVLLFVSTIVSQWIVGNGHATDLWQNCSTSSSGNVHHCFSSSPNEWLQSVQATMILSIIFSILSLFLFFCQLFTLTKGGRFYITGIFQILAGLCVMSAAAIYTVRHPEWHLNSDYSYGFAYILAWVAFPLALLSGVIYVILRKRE

[2] = molecular target: T1, wild type (WT) human peripheral myelin …; assay: cross-linking
[3] = molecular target: T1, wild type (WT) human peripheral myelin …; assay: cross-linking
[4] = molecular target: T1, wild type (WT) human peripheral myelin …; assay: cross-linking
[5] = molecular target: T1, wild type (WT) human peripheral myelin …; assay: SEC

fraction of cross-linked dimer [1]: 0.6
fraction of cross-linked dimer [2]: 0.5
stoichiometry N [2]: 2
fraction of cross-linked dimer [3]: 0.2
fraction of cross-linked dimer [4]: 0.3
stoichiometry N [5]: 2
B1: wild type (WT) human peripheral myelin protein 22 (PMP22), Q01453 1-160 (natural protein)
chain: MLLLLLSIIVLHVAVLVLLFVSTIVSQWIVGNGHATDLWQNCSTSSSGNVHHCFSSSPNEWLQSVQATMILSIIFSILSLFLFFCQLFTLTKGGRFYITGIFQILAGLCVMSAAAIYTVRHPEWHLNSDYSYGFAYILAWVAFPLALLSGVIYVILRKRE
